Laboratory results as given in patent publication US20230288399A1 (FNCT BIOTECH, published 2023).

Assays:
[1] = biological target: T1, SRC (UniProt P12931 2-536); assay: co-immunoprecipitation in SW-480 and HCT-116 colorectal cancer cells
T1 construct: Endogenous protein in colorectal cancer cell lysates or cells; also called p-SRC (phosphorylated form)
Source text: As a result of performing immunoprecipitation to confirm the expression correlation between ICAM-1 and SRC in SW-480 and HCT-116 colorectal cancer cells, it was confirmed that ICAM-1 binds to SRC endogenously, as shown in FIG. 3D.

[2] = biological target: T1, SRC; assay: immunoprecipitation with ICAM-1 Tyr512 mutants
Experimental: Furthermore, in order to confirm that ICAM-1 binds to SRC by a specific residue, an immunoprecipitation reaction was performed using a mutant with phosphomimetics form that inhibits (Y512A) or activates (Y512D) the Tyr512 phosphorylation residue of ICAM-1.

binding result [1] | binding result [2] | Binder
binds | – | intracellular adhesion molecule 1 (ICAM-1) (receptor, The assay used the endogenous protein of SW-480 and HCT-116 cells) QTSVSPSKVILPRGGSVLVTCSTSCDQPKLLGIETPLPKKELLLPGNNRKVYELSNVQEDSQPMCYSNCPDGQSTAKTFLTVYWTPERVELAPLPSWQPVGKNLTLRCQVEGGAPRANLTVVLLRGEKELKREPAVGEPAEVTTTVLVRRDHHGANFSCRTELDLRPQGLELFENTSAPYQLQTFVLPATPPQLVSPRVLEVDTQGTVVCSLDGLFPVSEAQVHLALGDQRLNPTVTYGNDSFSAKASVSVTAEDEGTQRLTCAVILGNQSQETLQTVTIYSFPAPNVILTKPEVSEGTEVTVKCEAHPRAKVTLNGVPAQPLGPRAQLLLKATPEDNGRSFSCSATLEVAGQLIHKNQTRELRVLYGPRLDERDCPGNWTWPENSQQTPMCQAWGNPLPELKCLKDGTFPLPIGESVTVTRDLEGTYLCRARSTQGEVTRKVTVNVLSPRYEIVIITVVAAAVIMGTAGLSTYLYNRQRKIKKYRLQQAQKGTPMKPNTQATPP
– | binds | ICAM-1 Y512D mutant (receptor) QTSVSPSKVILPRGGSVLVTCSTSCDQPKLLGIETPLPKKELLLPGNNRKVYELSNVQEDSQPMCYSNCPDGQSTAKTFLTVYWTPERVELAPLPSWQPVGKNLTLRCQVEGGAPRANLTVVLLRGEKELKREPAVGEPAEVTTTVLVRRDHHGANFSCRTELDLRPQGLELFENTSAPYQLQTFVLPATPPQLVSPRVLEVDTQGTVVCSLDGLFPVSEAQVHLALGDQRLNPTVTYGNDSFSAKASVSVTAEDEGTQRLTCAVILGNQSQETLQTVTIYSFPAPNVILTKPEVSEGTEVTVKCEAHPRAKVTLNGVPAQPLGPRAQLLLKATPEDNGRSFSCSATLEVAGQLIHKNQTRELRVLYGPRLDERDCPGNWTWPENSQQTPMCQAWGNPLPELKCLKDGTFPLPIGESVTVTRDLEGTYLCRARSTQGEVTRKVTVNVLSPRYEIVIITVVAAAVIMGTAGLSTYLYNRQRKIKKDRLQQAQKGTPMKPNTQATPP
